The results in this text go back to patent US20190270826A1 (Janssen / Centocor, published 2019).

Where a chain is given by its changes, count along the chain named.

In assay [1] the target is T1, recombinant human IL1RAP ECD (human, UniProt Q9NPH3 21-367).
T1 construct: His-tagged; also called hIL1RAP-ECD; rhuIL1RAP
T1 sequence: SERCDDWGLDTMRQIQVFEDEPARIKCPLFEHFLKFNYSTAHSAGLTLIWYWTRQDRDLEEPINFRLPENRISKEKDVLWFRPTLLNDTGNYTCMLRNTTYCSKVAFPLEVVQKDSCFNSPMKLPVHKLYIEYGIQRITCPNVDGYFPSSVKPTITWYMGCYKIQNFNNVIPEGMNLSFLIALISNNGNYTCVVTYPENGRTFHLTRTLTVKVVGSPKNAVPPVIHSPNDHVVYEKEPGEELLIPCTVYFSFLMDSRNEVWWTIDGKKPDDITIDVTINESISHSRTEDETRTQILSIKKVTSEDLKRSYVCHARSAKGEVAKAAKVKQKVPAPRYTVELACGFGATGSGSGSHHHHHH
Description: SPR.

In assay [2] the target is T2, recombinant cyno IL1RAP ECD (cynomolgus monkey, UniProt P59822 21-367 (rhesus entry)).
T2 construct: also called rcynoIL1RAP
T2 sequence: T1 sequence with L183F, T273P, K326T
Kind of assay: SPR, summary.

Assay [3] has as its target T1, recombinant human IL1RAP ECD. Description: SPR, summary. Background: SPR reads the build-up and loss of mass on a sensor chip optically.
Assay [4] has as its target T2, recombinant cyno IL1RAP ECD. Kind of assay: SPR.
Assay [5] has as its target T1, recombinant human IL1RAP ECD. Description: SPR. This is another data set of the same source.
For assay [6] the target is unchanged. Description: SPR; human KD over cyno KD.
The target of assay [7] is T3, human IL1RAP on cells (endogenous) (human, UniProt Q9NPH3 21-570).
T3 sequence (looked up): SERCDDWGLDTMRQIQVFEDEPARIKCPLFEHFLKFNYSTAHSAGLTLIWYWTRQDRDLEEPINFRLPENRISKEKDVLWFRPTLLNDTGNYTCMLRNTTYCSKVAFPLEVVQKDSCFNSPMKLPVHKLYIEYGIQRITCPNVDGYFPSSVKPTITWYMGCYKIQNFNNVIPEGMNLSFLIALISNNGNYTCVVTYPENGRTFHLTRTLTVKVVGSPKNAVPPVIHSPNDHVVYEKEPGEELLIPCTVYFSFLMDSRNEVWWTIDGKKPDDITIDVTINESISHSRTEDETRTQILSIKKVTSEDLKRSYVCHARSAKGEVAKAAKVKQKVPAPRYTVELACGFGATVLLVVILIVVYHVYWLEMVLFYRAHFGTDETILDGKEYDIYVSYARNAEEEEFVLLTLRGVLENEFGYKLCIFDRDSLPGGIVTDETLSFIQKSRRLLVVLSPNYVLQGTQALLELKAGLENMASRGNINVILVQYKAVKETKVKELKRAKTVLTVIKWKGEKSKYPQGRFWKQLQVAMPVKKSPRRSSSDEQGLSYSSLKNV
Description: cell-based or functional assay.

Assay [8] deals with T2, recombinant cyno IL1RAP ECD. Kind of assay: SPR. This is another data set of the same source.

B1: IC3B8 (bispecific antibody, human IgG4 S228P, kappa, lambda, F234A L235A)
heavy 1: EVQLVESGGGLVQPGGSLKLSCAASGFTFNTYAMNWVRQASGKGLEWVGRIRSKYNAYATYYAASVKGRFTISRDDSKNTAYLQMNSLKTEDTAVYYCTRHGNFGNSYVSWFAYWGQGTLVTVSSASTKGPSVFPLAPCSRSTSESTAALGCLVKDYFPEPVTVSWNSGALTSGVHTFPAVLQSSGLYSLSSVVTVPSSSLGTKTYTCNVDHKPSNTKVDKRVESKYGPPCPPCPAPEAAGGPSVFLFPPKPKDTLMISRTPEVTCVVVDVSQEDPEVQFNWYVDGVEVHNAKTKPREEQFNSTYRVVSVLTVLHQDWLNGKEYKCKVSNKGLPSSIEKTISKAKGQPREPQVYTLPPSQEEMTKNQVSLTCLVKGFYPSDIAVEWESNGQPENNYKTTPPVLDSDGSFLLYSKLTVDKSRWQEGNVFSCSVMHEALHNHYTQKSLSLSLGK
light 1: QAVVTQEPSLTVSPGGTVTLTCRSSTGAVTTSNYANWVQQKPGQAPRGLIGGTNKRAPGTPARFSGSLLGGKAALTLSGAQPEDEAEYYCALWYSNLWVFGGGTKLTVLGQPKAAPSVTLFPPSSEELQANKATLVCLISDFYPGAVTVAWKADSSPVKAGVETTTPSKQSNNKYAASSYLSLTPEQWKSHRSYSCQVTHEGSTVEKTVAPTECS
heavy 2: not shown
light 2: not shown
notes: IgG4-PAA, Fab arm exchange; also called IAPB23 x CD3B220
Take B1: the Kd in assay [1] stood at 9.96 nM; in assay [2], 2.7 nM; in assay [3], 9.96 nM; in assay [4] it was 2.7 nM; in assay [5], 9.96 nM; in assay [8] it was 2.7 nM. The results for the koff in assay [1] and in assay [8] were 0.00298 s⁻¹ and 0.00121 s⁻¹, respectively. The figures for the kon in assay [1] and in assay [8] were 300000 M⁻¹ s⁻¹ and 448000 M⁻¹ s⁻¹, respectively. The “Hu/Cyno KD Ratio” value in assay [6] came to 3.7. In assay [7], the “EC50, T-cell mediated cytotoxicity” value came to 0.138 nM.

B2: IC3B6 (bispecific antibody, human IgG4 S228P, kappa, lambda, F234A L235A)
heavy 1: B1 heavy 1
light 1: B1 light 1
heavy 2: not shown
light 2: not shown
notes: IgG4-PAA, Fab arm exchange; also called IAPB3 x CD3B220
Consider B2, for which the Kd in assay [1] came out at 2.29 nM; in assay [2] it was 2.99 nM; in assay [3], 2.29 nM; in assay [4], 2.99 nM; in assay [5], 2.29 nM; in assay [8] it was 2.99 nM. Further, the values for the dissociation rate constant (koff) in assay [1] and in assay [8] were 0.000381 s⁻¹ and 0.00054 s⁻¹, respectively. Besides, the figures for the kon in assay [1] and in assay [8] were 167000 M⁻¹ s⁻¹ and 180000 M⁻¹ s⁻¹, respectively. Also, the “Hu/Cyno KD Ratio” value in assay [6] turned out to be 0.8. Further, in assay [7], the “EC50, T-cell mediated cytotoxicity” value is 0.49 nM.

B3: IC3B15 (bispecific antibody, human IgG4 S228P, kappa, lambda, F234A L235A)
heavy 1: B1 heavy 1
light 1: B1 light 1
heavy 2: not shown
light 2: not shown
notes: IgG4-PAA, Fab arm exchange; also called IAPB65 x CD3B220
For the molecule B3, the Kd was 11.5 nM in assay [1]; 9.08 nM in assay [2]; 11.5 nM in assay [3]; 9.08 nM in assay [4]; 11.5 nM in assay [5]; 9.08 nM in assay [8]. The koff came to 0.00395 s⁻¹ in assay [1] and 0.00344 s⁻¹ in assay [8]. Also, the kon was 343000 M⁻¹ s⁻¹ in assay [1] and 379000 M⁻¹ s⁻¹ in assay [8]. Moreover, in assay [6], the “Hu/Cyno KD Ratio” value is 1.3. For the same molecule, the “EC50, T-cell mediated cytotoxicity” value in assay [7] is 0.94 nM.

B4: IC3B13 (bispecific antibody, human IgG4 S228P, lambda, F234A L235A)
heavy 1: B1 heavy 1
light 1: B1 light 1
heavy 2: not shown
light 2: QSALTQPRSVSGSPGHSVTISCTGTSSDVGDYNYVSWYQQRPGKVPKLLIYDVSKRPSGVPDRFSGSKSGNTASLTISGLQAEDEAIYFCASYAGNYNVVFGGGTKLTVLGQPKAAPSVTLFPPSSEELQANKATLVCLISDFYPGAVTVAWKADSSPVKAGVETTTPSKQSNNKYAASSYLSLTPEQWKSHRSYSCQVTHEGSTVEKTVAPTECS
notes: IgG4-PAA, Fab arm exchange; also called IAPB63 x CD3B220
Turning to B4, the Kd in assay [1] was 0.122 nM; in assay [2], 0.451 nM; in assay [3] it was 0.122 nM; in assay [4], 0.451 nM; in assay [5], 0.122 nM; in assay [8] it was 0.451 nM. Moreover, the values for the koff in assay [1] and in assay [8] were 0.000114 s⁻¹ and 0.000532 s⁻¹, respectively. In addition, the values for the association rate constant (kon) in assay [1] and in assay [8] were 938000 M⁻¹ s⁻¹ and 1.18e+06 M⁻¹ s⁻¹, respectively. In addition, the “Hu/Cyno KD Ratio” value in assay [6] was 0.3. Besides, the “EC50, T-cell mediated cytotoxicity” value in assay [7] amounted to 0.054 nM.

B5: IC3B3 (bispecific antibody, human IgG4 S228P, kappa, lambda, F234A L235A)
heavy 1: B1 heavy 1
light 1: B1 light 1
heavy 2: not shown
light 2: DIQLTQSPSFLSASVGDRVTITCRASQGISSYLAWYQQKPGKAPKLLIYAASTLQSGVPSRFSGSGSGTEFTLTISSLQPEDFATYYCQQVNSYPLTFGGGTKVEIKRTVAAPSVFIFPPSDEQLKSGTASVVCLLNNFYPREAKVQWKVDNALQSGNSQESVTEQDSKDSTYSLSSTLTLSKADYEKHKVYACEVTHQGLSSPVTKSFNRGEC
notes: IgG4-PAA, Fab arm exchange; also called IAPB57 x CD3B220
As to B5, the Kd in assay [1] was determined as 0.034 nM; in assay [2] it was 0.086 nM; in assay [3], 0.034 nM; in assay [4], 0.0861 nM; in assay [5] it was 0.034 nM; in assay [8] it was 0.0861 nM. The koff in assay [1] came to 2.98e-05 s⁻¹; in assay [8], 8.2e-05 s⁻¹. Also, the kon stood at 875000 M⁻¹ s⁻¹ in assay [1] and 952000 M⁻¹ s⁻¹ in assay [8]. Moreover, in assay [6], the “Hu/Cyno KD Ratio” value came to 0.4. In addition, in assay [7], the “EC50, T-cell mediated cytotoxicity” value is 0.131 nM.

B6: IC3B14 (bispecific antibody, human IgG4 S228P, lambda, F234A L235A)
heavy 1: B1 heavy 1
light 1: B1 light 1
heavy 2: not shown
light 2: B4 light 2 with A91S
notes: IgG4-PAA, Fab arm exchange; also called IAPB64 x CD3B220
As to B6, the Kd in assay [1] stood at 0.246 nM; in assay [2], 0.993 nM; in assay [3], 0.246 nM; in assay [4] it was 0.993 nM; in assay [5], 0.246 nM; in assay [8] it was 0.993 nM. Also, the koff in assay [1] turned out to be 0.000171 s⁻¹; in assay [8], 0.000858 s⁻¹. The kon in assay [1] worked out at 695000 M⁻¹ s⁻¹; in assay [8], 864000 M⁻¹ s⁻¹. In addition, in assay [6], the “Hu/Cyno KD Ratio” value is 0.2. Besides, the “EC50, T-cell mediated cytotoxicity” value in assay [7] was found to be 0.1 nM.

B7: IC3B12 (bispecific antibody, human IgG4 S228P, kappa, lambda, F234A L235A)
heavy 1: B1 heavy 1
light 1: B1 light 1
heavy 2: not shown
light 2: not shown
notes: IgG4-PAA, Fab arm exchange; also called IAPB55 x CD3B220
Regarding B7, the Kd is 0.313 nM in assay [1]; 0.218 nM in assay [2]; 0.313 nM in assay [3]; 0.218 nM in assay [4]; 0.313 nM in assay [5]; 0.218 nM in assay [8]. Also, the koff in assay [1] came to 0.000361 s⁻¹; in assay [8], 0.000331 s⁻¹. In addition, the values for the kon in assay [1] and in assay [8] were 1.15e+06 M⁻¹ s⁻¹ and 1.52e+06 M⁻¹ s⁻¹, respectively. Further, the “Hu/Cyno KD Ratio” value in assay [6] stood at 1.4. Besides, in assay [7], the “EC50, T-cell mediated cytotoxicity” value is 1.3 nM.

The Kd is the equilibrium constant for the complex coming apart. A word on the koff: it is a measure of how fast the partners let go of each other. A word on the kon: it is a measure of how fast the partners come together.
